Data set [1] concerns the target T1, CtMnmE (Chlorobaculum tepidum, UniProt Q8KAS1).
T1 construct: gene mnmE; full length, N-terminal His-tag (pET14b, E. coli BL21-DE3) cut by thrombin; homodimer
T1 sequence (Q8KAS1 1-473): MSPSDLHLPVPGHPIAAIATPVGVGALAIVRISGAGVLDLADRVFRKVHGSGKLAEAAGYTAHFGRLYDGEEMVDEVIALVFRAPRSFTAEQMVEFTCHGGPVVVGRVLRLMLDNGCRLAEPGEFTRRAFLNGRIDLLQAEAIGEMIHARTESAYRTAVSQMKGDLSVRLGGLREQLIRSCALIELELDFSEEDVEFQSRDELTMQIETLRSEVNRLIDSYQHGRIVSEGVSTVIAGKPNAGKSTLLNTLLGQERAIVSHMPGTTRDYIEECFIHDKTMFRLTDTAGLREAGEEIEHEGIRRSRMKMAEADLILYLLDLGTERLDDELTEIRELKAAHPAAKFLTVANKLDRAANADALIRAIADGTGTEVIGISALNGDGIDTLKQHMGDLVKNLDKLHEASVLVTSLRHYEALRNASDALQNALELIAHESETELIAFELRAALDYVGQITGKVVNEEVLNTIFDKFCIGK
In words: X-ray crystal structure (soak). It is filed as binding. Conditions: 5 mM 5-F-THF in cryoprotectant; N-terminal domain dimer interface; GDP also bound.

The target of data set [2] is T2, NoMnmE (Nostoc sp. PCC 7120 = FACHB-418, UniProt Q8YN91).
T2 construct: gene mnmE; full length, N-terminal His-tag (pET14b, E. coli BL21-DE3) cut by thrombin; homodimer
T2 sequence (Q8YN91 1-459): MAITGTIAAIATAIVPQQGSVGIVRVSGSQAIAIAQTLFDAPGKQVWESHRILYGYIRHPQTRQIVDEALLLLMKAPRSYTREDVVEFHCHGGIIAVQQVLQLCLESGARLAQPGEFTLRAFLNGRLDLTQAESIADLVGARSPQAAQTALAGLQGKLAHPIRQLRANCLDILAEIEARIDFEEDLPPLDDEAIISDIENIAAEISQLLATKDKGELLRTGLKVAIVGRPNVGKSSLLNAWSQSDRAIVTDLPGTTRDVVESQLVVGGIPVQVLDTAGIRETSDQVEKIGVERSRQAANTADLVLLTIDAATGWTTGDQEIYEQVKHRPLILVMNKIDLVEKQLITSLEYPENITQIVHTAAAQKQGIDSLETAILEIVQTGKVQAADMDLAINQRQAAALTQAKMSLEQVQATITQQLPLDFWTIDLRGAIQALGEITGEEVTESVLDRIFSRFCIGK
In words: X-ray crystal structure. Conditions: copurified from E. coli; two sites in N-terminal domain dimer interface; GDP also bound. The class given is binding.

Data set [3] deals with the molecule itself. In words: crystal structure; full-length MnmE crystallised with K+, GDP and AlFx (only GDP found bound); hanging-drop vapour diffusion; homodimer by crystallographic symmetry.
Data set [4] concerns the molecule itself. As to the kind of experiment: pulse EPR (four-pulse DEER) of spin-labelled protein; 200–500 µM MTSSL-labelled protein in 100 mM KCl (or NaCl, RbCl, CsCl, NH4Cl), 50 mM Tris-HCl, 5 mM MgCl2 pH 7.4; apo, 1 mM GDP, 1 mM GppNHp or GDP-AlFx; measured at 50 K; distances between the two symmetry-related labels of the dimer.

The results in this text go back to paper PMC2749940, “Kissing G Domains of MnmE Monitored by X-Ray Crystallography and Pulse Electron Paramagnetic Resonance Spectroscopy” (PLoS Biology, 2009).

Numbering of substitutions follows the chain as printed. In names and notes the source's numbering stands.

As to `Nc1nc2c(c(=O)[nH]1)N(C=O)[C@@H](CNc1ccc(C(=O)N[C@@H](CCC(=O)O)C(=O)O)cc1)CN2` [5-F-THF, 5-formyl-tetrahydrofolate], the “X-ray crystal structure (soak)” value in data set [1] is on record as “in the crystal structure 5-F-THF is found in identical positions as in the NoMnmE·GDP-dimer”. Besides, in data set [2], the X-ray crystal structure entry is given as “two molecules of 5-formyl-tetrahydrofolate (5-F-THF) were identified in the structure of NoMnmE·GDP”.

B1: Nostoc sp. 7120 MnmE (natural protein, UniProt Q8YN91 1-459, looked up)
chain: T2 sequence (Q8YN91 1-459)
notes: MnmE of Nostoc sp; 7120, full-length protomer, cloned into pET14b; Crystallised with GDP (grown with GDP-AlFx and K+); 5-formyl-tetrahydrofolate was co-purified; also called NoMnmE; NoMnmE·GDP; source: E. coli BL21-DE3, purified (Ni-NTA, thrombin cleavage of the His-tag, gel filtration on Superdex 200); not shown: His tag, N-terminal, cleaved
For the molecule B1, the binding result in data set [3] is listed as “binds”.

B2: Chlorobium tepidum MnmE (natural protein, UniProt Q8KAS1 1-473, looked up)
chain: T1 sequence (Q8KAS1 1-473)
notes: MnmE of Chlorobium tepidum, full-length protomer, cloned into pET14b; Crystallised with GDP (grown with GDP-AlFx and K+) and with GppCp; homodimer through the N-terminal domains; also called CtMnmE; CtMnmE·GDP; source: E. coli BL21-DE3, purified (Ni-NTA, thrombin cleavage of the His-tag, gel filtration on Superdex 200); not shown: His tag, N-terminal, cleaved
For the molecule B2, the binding result in data set [3] is “binds”.

B3: E. coli MnmE-C451S E287R1 (Glu287 mutated to Cys, MTSSL-labelled) (natural protein, UniProt P25522 1-454, looked up)
chain: MSDNDTIVAQATPPGRGGVGILRISGFKAREVAETVLGKLPKPRYADYLPFKDADGSVLDQGIALWFPGPNSFTGEDVLELQGHGGPVILDLLLKRILTIPGLRIARPGEFSERAFLNDKLDLAQAEAIADLIDASSEQAARSALNSLQGAFSARVNHLVEALTHLRIYVEAAIDFPDEEIDFLSDGKIEAQLNDVIADLDAVRAEARQGSLLREGMKVVIAGRPNAGKSSLLNALAGREAAIVTDIAGTTRDVLREHIHIDGMPLHIIDTAGLREASDEVERIGICRAWQEIEQADRVLFMVDGTTTDAVDPAEIWPEFIARLPAKLPITVVRNKADITGETLGMSEVNGHALIRLSARTGEGVDVLRNHLKQSMGFDTNMEGGFLARRRHLQALEQAAEHLQQGKAQLLGAWAGELLAEELRLAQQNLSEITGEFTSDDLLGRIFSSFSIGK
modifications: MTSSL spin label (R1 side chain) on the cysteine at 287
notes: MnmE of E. coli, full length, Cys mutant in the C451S background; also called EcMnmE E287R1; source: purified, nucleotide-free
As to B3, in data set [4], the binding result is on record as “binds”.

B4: E. coli MnmE-C451S D366R1 (Asp366 mutated to Cys, MTSSL-labelled) (natural protein, UniProt P25522 1-454, looked up)
chain: B3 chain with C287E, D366C
modifications: MTSSL spin label (R1 side chain) on the cysteine at 366
notes: MnmE of E. coli, full length, Cys mutant in the C451S background; source: purified, nucleotide-free
For B4, the binding result in data set [4] is listed as “binds”.

B5: E. coli MnmE-C451S I105R1 (Ile105 mutated to Cys, MTSSL-labelled) (natural protein, UniProt P25522 1-454, looked up)
chain: B3 chain with I105C, C287E
modifications: MTSSL spin label (R1 side chain) on the cysteine at 105
notes: as for B4
B5: in data set [4], the binding result is given as “binds”.

B6: E. coli MnmE-C451S S278R1 (Ser278 mutated to Cys, MTSSL-labelled) (natural protein, UniProt P25522 1-454, looked up)
chain: B3 chain with S278C, C287E
modifications: MTSSL spin label (R1 side chain) on the cysteine at 278
notes: as for B4
For B6, the binding result in data set [4] is listed as “binds”.
